Test results from paper PMC6093294.

Experiments:
Test in all cases: purified protein
purified protein [1] = substrate: CCCCCCCCCCCCCCCC(=O)SCCNC(=O)CCNC(=O)[C@H](O)C(C)(C)COP(=O)(O)OP(=O)(O)OC[C@H]1O[C@@H](n2cnc3c(N)ncnc32)[C@H](O)[C@@H]1OP(=O)(O)O; settings: 60 mM tryptamine, 300 mM Tris pH 8.0, 150 μM DTNB, 22°C
purified protein [2] = substrate: CCCCC/C=C\C/C=C\C/C=C\C/C=C\CCCC(=O)SCCNC(=O)CCNC(=O)[C@H](O)C(C)(C)COP(=O)(O)OP(=O)(O)OC[C@H]1O[C@@H](n2cnc3c(N)ncnc32)[C@H](O)[C@@H]1OP(=O)(O)O; assay type: biochemical, Bombyx mori; settings: 60 mM tryptamine, 300 mM Tris pH 8.0, 150 μM DTNB, 22°C
purified protein [3] = substrate: CCCCCCCC/C=C\CCCCCCCC(=O)SCCNC(=O)CCNC(=O)[C@H](O)C(C)(C)COP(=O)(O)OP(=O)(O)OC[C@H]1O[C@@H](n2cnc3c(N)ncnc32)[C@H](O)[C@@H]1OP(=O)(O)O; assay type: biochemical, Bombyx mori; settings: 60 mM tryptamine, 300 mM Tris pH 8.0, 150 μM DTNB, 22°C
purified protein [4] = substrate: CCCCCCCCCCCC(=O)SCCNC(=O)CCNC(=O)[C@H](O)C(C)(C)COP(=O)(O)OP(=O)(O)OC[C@H]1O[C@@H](n2cnc3c(N)ncnc32)[C@H](O)[C@@H]1OP(=O)(O)O; assay type: biochemical, Bombyx mori; settings: 60 mM tryptamine, 300 mM Tris pH 8.0, 150 μM DTNB, 22°C
purified protein [5] = substrate: CCCCCCCCCCCCCC(=O)SCCNC(=O)CCNC(=O)[C@H](O)C(C)(C)COP(=O)(O)OP(=O)(O)OC[C@H]1O[C@@H](n2cnc3c(N)ncnc32)[C@H](O)[C@@H]1OP(=O)(O)O; assay type: biochemical, Bombyx mori; settings: 60 mM tryptamine, 300 mM Tris pH 8.0, 150 μM DTNB, 22°C
purified protein [6] = substrate: NCCc1c[nH]c2ccccc12; assay type: biochemical, Bombyx mori; settings: 100 μM oleoyl-CoA, 300 mM Tris pH 8.0, 150 μM DTNB, 22°C
purified protein [7] = substrate: NCCc1ccc(O)cc1; assay type: biochemical, Bombyx mori; settings: 100 μM oleoyl-CoA, 300 mM Tris pH 8.0, 150 μM DTNB, 22°C
purified protein [8] = substrate: NC[C@H](O)c1ccc(O)cc1; assay type: biochemical, Bombyx mori; settings: 100 μM oleoyl-CoA, 300 mM Tris pH 8.0, 150 μM DTNB, 22°C

B1: Bm-iAANAT (insect arylalkylamine N-acyltransferase from Bombyx mori) (Bombyx mori) (protein)
chain: MAVTSTRGIVNLKEKGHFERENARVEKYTLGDELPAQLSSLEIRPRKMSVPAYTIQRLTYNDRDLVLKFLRRFFFRDEPMNLAVNLLETPESRCTELDDYAAATLSDGVSVAAVDENGDYVGVIINGIVRREEVDYTDKSEDCPNPKFRRILKVLGHLDREARIWDKLPETCDSVLEIRIASTHSSWRGRGLMRVLCEEAERLAKAMGAGALRMDTTSAFSAAAAERLNYKMAFGVRYADLPYAPQPEAPHLEARVYIKEL
Purified protein [1]
  Km: 1.1 ± 0.30 µM
  kcat: 0.51 s⁻¹
  kcat/Km: 490000 M⁻¹ s⁻¹
Purified protein [2]
  Km: 1.2 ± 0.67 µM
  kcat: 0.27 ± 0.02 s⁻¹
  kcat/Km: 240000 ± 130000 M⁻¹ s⁻¹
Purified protein [3]
  Km: 1.7 ± 0.51 µM
  kcat: 0.42 ± 0.02 s⁻¹
  kcat/Km: 240000 ± 70000 M⁻¹ s⁻¹
Purified protein [4]
  Km: 0.97 ± 0.12 µM
Purified protein [5]
  Km: 0.92 ± 0.20 µM
  kcat: 0.66 ± 0.01 s⁻¹
  kcat/Km: 720000 ± 150000 M⁻¹ s⁻¹
Purified protein [6]
  Km: 7000 ± 500 µM
  kcat: 0.72 ± 0.01 s⁻¹
  kcat/Km: 100 ± 7 M⁻¹ s⁻¹
Purified protein [7]
  Km: 84000 ± 12000 µM
  kcat: 2.7 ± 0.19 s⁻¹
  kcat/Km: 32 ± 5.3 M⁻¹ s⁻¹
Purified protein [8]
  Km: 65000 ± 16000 µM
  kcat: 0.31 ± 0.04 s⁻¹
  kcat/Km: 4.7 ± 1.2 M⁻¹ s⁻¹
